In US12383631:
Where two headings read alike, the source gives them in different places.

What was measured:
[1] = biological target: recombinant Human Fc gamma RIIIA/CD16a Protein (R&D systems, 4325-FC-050) (human) (UniProt P08637); assay: ELISA; immunocytokine coated, receptor titrated, anti-His-HRP
[2] = biological target: recombinant Human Fc gamma RIIA/CD32a (H167) Protein (R&D systems, 9595-CD-050) (human) (UniProt P12318); assay: as above
[3] = biological target: recombinant Human Fc gamma RI/CD64 Protein (R&D systems, 1257-FC-050) (human) (UniProt P12314); assay: as above
recombinant Human Fc gamma RI/CD64 Protein (R&D systems, 1257-FC-050) (human), sequence (P12314 16-288 limits assumed): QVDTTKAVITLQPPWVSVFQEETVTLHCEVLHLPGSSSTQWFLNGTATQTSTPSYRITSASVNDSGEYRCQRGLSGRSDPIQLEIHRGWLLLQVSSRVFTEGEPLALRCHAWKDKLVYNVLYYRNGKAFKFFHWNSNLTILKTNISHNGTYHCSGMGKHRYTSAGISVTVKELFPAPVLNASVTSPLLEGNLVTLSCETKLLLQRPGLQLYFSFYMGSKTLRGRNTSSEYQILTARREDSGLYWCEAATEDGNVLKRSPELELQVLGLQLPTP

[4] = biological target: recombinant Human Fc gamma RIIB/CD32b Avi-tag Protein (R&D systems, AVI1875-050) (human) (UniProt P31994); assay: as above
recombinant Human Fc gamma RIIB/CD32b Avi-tag Protein (R&D systems, AVI1875-050) (human), sequence (P31994 46-217 limits assumed): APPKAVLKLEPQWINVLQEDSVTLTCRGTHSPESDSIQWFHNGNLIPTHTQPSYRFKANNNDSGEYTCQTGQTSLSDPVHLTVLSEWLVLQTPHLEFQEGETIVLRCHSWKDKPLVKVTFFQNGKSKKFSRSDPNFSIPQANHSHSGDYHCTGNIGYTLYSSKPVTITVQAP

[5] = biological target: recombinant Human Fc gamma RI/CD64 Protein (R&D systems, 1257-FC-050) (human) (UniProt P12314); assay: ELISA: immunocytokine coated on the plate (2.5 ug/ml), His-tagged recombinant human Fc gamma RI/CD64 titrated in solution (x-axis), anti-His-HRP/TMB, 450 nm
[6] = biological target: T1, IL-18 receptor (IL-18Rα/IL-18Rβ) on cells (HEK-Blue IL18R reporter cells, NK-92, KG-1) (human) (UniProt Q13478); assay: cell-based or functional assay
T1 sequence (looked up) 1: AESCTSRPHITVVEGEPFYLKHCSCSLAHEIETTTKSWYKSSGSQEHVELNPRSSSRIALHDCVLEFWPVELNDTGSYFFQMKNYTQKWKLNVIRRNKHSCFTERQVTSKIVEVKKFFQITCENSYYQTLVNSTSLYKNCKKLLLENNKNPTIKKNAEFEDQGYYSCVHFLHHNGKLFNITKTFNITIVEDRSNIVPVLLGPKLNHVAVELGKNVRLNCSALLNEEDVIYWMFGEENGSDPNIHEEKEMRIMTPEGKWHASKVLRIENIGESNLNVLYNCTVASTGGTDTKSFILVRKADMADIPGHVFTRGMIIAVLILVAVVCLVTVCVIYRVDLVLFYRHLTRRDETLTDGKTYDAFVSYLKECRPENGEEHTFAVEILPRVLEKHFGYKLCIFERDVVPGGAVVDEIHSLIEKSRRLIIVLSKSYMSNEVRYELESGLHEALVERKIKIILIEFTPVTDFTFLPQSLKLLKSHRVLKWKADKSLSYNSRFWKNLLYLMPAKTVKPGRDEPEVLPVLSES
T1 sequence (looked up) 2: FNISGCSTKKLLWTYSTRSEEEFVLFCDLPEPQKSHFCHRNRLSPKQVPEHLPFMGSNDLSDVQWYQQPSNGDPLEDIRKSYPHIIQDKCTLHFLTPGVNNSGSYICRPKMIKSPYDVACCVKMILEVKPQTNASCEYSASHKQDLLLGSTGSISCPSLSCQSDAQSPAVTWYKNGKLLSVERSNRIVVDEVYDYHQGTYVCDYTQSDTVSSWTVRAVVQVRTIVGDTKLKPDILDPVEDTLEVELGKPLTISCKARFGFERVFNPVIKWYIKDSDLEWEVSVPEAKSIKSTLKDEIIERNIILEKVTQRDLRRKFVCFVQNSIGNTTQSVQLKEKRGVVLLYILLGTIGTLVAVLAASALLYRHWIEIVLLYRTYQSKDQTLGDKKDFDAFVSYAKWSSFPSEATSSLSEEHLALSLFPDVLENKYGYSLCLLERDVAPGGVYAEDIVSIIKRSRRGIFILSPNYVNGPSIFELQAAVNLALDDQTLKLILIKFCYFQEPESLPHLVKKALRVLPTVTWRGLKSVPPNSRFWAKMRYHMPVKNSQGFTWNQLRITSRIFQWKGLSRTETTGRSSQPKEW

[7] = biological target: human PD-1 on Jurkat T effector cells (human) (UniProt Q15116)
human PD-1 on Jurkat T effector cells (human), sequence (Q15116 25-288 limits assumed): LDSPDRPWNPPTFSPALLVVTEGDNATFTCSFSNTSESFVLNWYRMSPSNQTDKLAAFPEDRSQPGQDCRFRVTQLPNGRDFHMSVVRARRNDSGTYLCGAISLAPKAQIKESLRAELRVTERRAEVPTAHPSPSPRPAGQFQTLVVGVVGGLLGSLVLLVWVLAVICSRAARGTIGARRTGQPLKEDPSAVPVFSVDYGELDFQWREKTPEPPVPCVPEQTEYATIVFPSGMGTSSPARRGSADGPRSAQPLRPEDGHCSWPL

[8] = biological target: human IL-18BP-His (human) (UniProt O95998); assay: AlphaLISA of free IL-18BP after incubation with IL-18BP-His
human IL-18BP-His (human), sequence (O95998 31-194 limits assumed): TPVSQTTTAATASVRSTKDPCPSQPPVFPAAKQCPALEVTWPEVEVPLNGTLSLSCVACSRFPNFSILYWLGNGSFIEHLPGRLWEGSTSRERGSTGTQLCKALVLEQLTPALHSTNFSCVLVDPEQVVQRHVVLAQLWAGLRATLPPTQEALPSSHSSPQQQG

[9] = biological target: human IL-18BP-His (human) (UniProt O95998); assay: AlphaLISA of free (unbound) IL-18BP: immunocytokine titrated (x-axis) and pre-incubated with human IL-18BP-His; anti-IL-18BP acceptor beads, biotinylated anti-IL-18BP antibody, streptavidin donor beads; the signal falls as IL-18BP is bound
[10] = biological target: human PD-1 on Jurkat T effector cells (human) (UniProt Q15116); remark: listed apart in the source
[11] = biological target: recombinant biotinylated human FcRn (human) (UniProt P55899); assay: FcRn competition AlphaLISA at pH 6: test antibody titrated (x-axis) against human IgG-coated acceptor beads (reference IgG) for biotinylated human FcRn on streptavidin donor beads; loss of signal
recombinant biotinylated human FcRn (human), sequence (P55899 24-297 limits assumed, form in doubt, chain 1 of 2): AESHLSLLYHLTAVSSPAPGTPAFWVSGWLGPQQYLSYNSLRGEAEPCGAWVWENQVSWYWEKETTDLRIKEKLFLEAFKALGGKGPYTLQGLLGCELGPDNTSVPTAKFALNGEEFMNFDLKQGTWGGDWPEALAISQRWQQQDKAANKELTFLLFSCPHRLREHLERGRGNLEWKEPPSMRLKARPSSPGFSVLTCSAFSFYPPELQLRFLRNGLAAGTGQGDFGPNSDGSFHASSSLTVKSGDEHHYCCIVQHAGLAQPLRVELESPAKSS
recombinant biotinylated human FcRn (human), sequence (chain, as listed by the source limits assumed, form in doubt, chain 2 of 2): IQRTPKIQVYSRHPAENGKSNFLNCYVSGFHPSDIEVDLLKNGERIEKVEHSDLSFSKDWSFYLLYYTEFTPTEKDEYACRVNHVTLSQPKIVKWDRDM

[12] = biological target: recombinant biotinylated human FcRn (human) (UniProt P55899); assay: AlphaLISA competition at pH 6; competitor: human IgG on acceptor beads
[13] = biological target: recombinant Human Fc gamma RIIIA/CD16a Protein (R&D systems, 4325-FC-050) (human) (UniProt P08637); assay: ELISA; antibody coated, receptor titrated, anti-His-HRP
[14] = biological target: recombinant Human Fc gamma RIIA/CD32a (H167) Protein (R&D systems, 9595-CD-050) (human) (UniProt P12318); assay: as above
[15] = biological target: recombinant Human Fc gamma RI/CD64 Protein (R&D systems, 1257-FC-050) (human) (UniProt P12314); assay: as above
[16] = biological target: recombinant Human Fc gamma RIIB/CD32b Avi-tag Protein (R&D systems, AVI1875-050) (human) (UniProt P31994); assay: as above
[17] = biological target: recombinant Human Fc gamma RI/CD64 Protein (R&D systems, 1257-FC-050) (human) (UniProt P12314); assay: ELISA: antibody coated on the plate (2.5 ug/ml), His-tagged recombinant human Fc gamma RI/CD64 titrated in solution (x-axis), anti-His-HRP/TMB, 450 nm

recombinant Human Fc gamma RIIIA/CD16a Protein (R&D systems, 4325-FC-050) (human), sequence (P08637 17-208 limits assumed): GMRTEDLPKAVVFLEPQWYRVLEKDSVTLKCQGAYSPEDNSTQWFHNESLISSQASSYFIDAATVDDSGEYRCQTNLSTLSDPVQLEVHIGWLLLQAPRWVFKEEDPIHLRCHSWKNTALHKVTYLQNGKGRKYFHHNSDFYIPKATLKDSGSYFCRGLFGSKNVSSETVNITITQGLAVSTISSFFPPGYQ
recombinant Human Fc gamma RIIA/CD32a (H167) Protein (R&D systems, 9595-CD-050) (human), sequence (P12318 36-218 limits assumed): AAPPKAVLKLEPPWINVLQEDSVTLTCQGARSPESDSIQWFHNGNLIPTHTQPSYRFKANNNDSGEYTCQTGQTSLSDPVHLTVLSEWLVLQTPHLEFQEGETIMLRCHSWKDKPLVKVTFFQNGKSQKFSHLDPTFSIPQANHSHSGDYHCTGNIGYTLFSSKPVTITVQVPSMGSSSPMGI
LZM-009 (antibody), sequence (VH): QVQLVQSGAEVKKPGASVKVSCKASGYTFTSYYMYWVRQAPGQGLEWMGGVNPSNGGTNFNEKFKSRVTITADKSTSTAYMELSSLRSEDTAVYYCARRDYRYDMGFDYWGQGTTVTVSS
LZM-009 (antibody), sequence (VL): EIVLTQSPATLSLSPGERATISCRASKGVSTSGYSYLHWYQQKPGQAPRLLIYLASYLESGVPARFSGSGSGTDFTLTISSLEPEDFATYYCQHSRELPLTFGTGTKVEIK

Substance	Kd [1] [nM]	Kd [2] [nM]	Kd [3] [nM]	Kd [4] [nM]	EC50 (read off the curve) [5] [nM]	EC50, IFNγ secretion, NK92 cells [6] [nM]	EC50, IFNγ secretion, PD-1 positive KG-1 cells [6] [nM]	EC50, IFNγ secretion, parental KG-1 cells [6] [nM]	EC50 (read off the curve), NFAT-RE luciferase signal (PD-1/PD-L1 Blockade Bioassay) [7] [nM]	Kd [8] [nM]	IC50 (read off the curve) [9] [nM]	EC50 (read off the curve), NFAT-RE luciferase signal (PD-1/PD-L1 Blockade Bioassay) [10] [nM]	IC50 (read off the curve) [11] [nM]	Kd [12] [nM]	Kd [13] [nM]	Kd [14] [nM]	Kd [15] [nM]	Kd [16] [nM]	EC50 (read off the curve) [17] [nM]
Composition A (LZM-009 conjugated to IL-18 polypeptide of SEQ ID NO: 30) (from UniProt Q14116 37-193)	598	1890	0.25	436	0.3	0.073	0.0012	0.011	3	–	–	–	–	–	–	–	–	–	–
Composition C (Trastuzumab/Herceptin conjugated to IL-18 polypeptide of SEQ ID NO: 30)	3300	–	–	–	–	0.027	0.0096	0.0166	–	10.5	10	–	–	–	–	–	–	–	–
LZM-009 (antibody)	–	–	–	–	–	–	–	–	–	–	–	2	5	6	1710	1350	0.315	2630	0.2
